Test results from the supplement of paper PMC10126150.
± gives the standard deviation of the averaged measurements.

Tested on: ATP
Assay: switch fluorescence ratio, 500 uM ATP over buffer (Cy3 cluster intensity, sum of 5 cycles each) (fold (ratio)); higher = stronger signal-on switching upon ATP binding; sequences stand for … in TCGTCGGCAGCGTCAGATGTGTATAAGAGACAGTTTTTTTTTTTTTTTTTTTTTTTTT…TC
Settings: aptamer strand: ATP DNA aptamer (quencher-CACCTGGGGGAGTATTGCGGAGGAAGG + anchor), 100 nM annealed; ATP concentration: 500 uM
Method in brief: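 Imaging in selection buffer was followed by imaging after 15 min with 500 uM ATP at 22 °C, for Cy3-labelled switching-strand clusters annealed to 100 nM quencher-labelled ATP aptamer on a modified Illumina MiSeq flow-cell. Five of these buffer/ATP cycles ran, separated by NaOH stripping and re-annealing. The fluorescence ratio per cluster is summed target-cycle over summed buffer-cycle Cy3 intensity, averaged per switch-domain sequence; clusters outside 100-1000 RFU were removed.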
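Note: ATP exposure 15 min at 22 °C before imaging.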

Point of comparison: TGGGGTTCAG, switch fluorescence ratio 1.01 ± 0.019. Against it:
- TGGGGGTTCT — within error, 1.02 ± 0.057
- TGGGGTAAAA — within error, 0.99 ± 0.0091
- TGGGGTAAAT — the same, 1.01 ± 0.017
- TGGGGTAGAG — within error, 0.97 ± 0.041
- TGGGGTAGC — within error, 0.9979 ± 0.0088
- TGGGGTAGCC — lower, 0.932 ± 0.029
- TGGGGTAGCG — within error, 0.998 ± 0.043
- TGGGGTAGCT — within error, 0.997 ± 0.015
- TGGGGTAGGC — within error, 1.02 ± 0.034
- TGGGGTCAGC — within error, 1.001 ± 0.0097
- TGGGGTCGCT — lower, 0.9829 ± 0.001
- TGGGGTTAAG — within error, 0.977 ± 0.025
- TGGGGTTAAT — within error, 0.997 ± 0.028
- TGGGGTTAGT — within error, 0.979 ± 0.014
- TGGGGTTATT — lower, 0.974 ± 0.0098
- TGGGGTTCTT — within error, 0.993 ± 0.034
- TGGGGTTGCG — within error, 0.981 ± 0.032
- TGGGGTTTAG — within error, 0.99 ± 0.024
- TGGGTAAAAA — within error, 0.995 ± 0.014
- TGGGTAAAGA — within error, 0.981 ± 0.049
- TGGGTAAGGG — the same, 1.01 ± 0.03
- TGGGTAATGG — the same, 1.01 ± 0.038
- TGGGTACGCA — within error, 1.03 ± 0.027
- TGGGTAGAAG — within error, 0.9916 ± 0.0014
- TGGGTAGGAG — within error, 0.987 ± 0.025
- TGGGTAGGGG — within error, 0.985 ± 0.025
- TGGGTAGTAC — within error, 1.04 ± 0.039
- TGGGTAGTAT — lower, 0.977 ± 0.012
- TGGGTATGG — within error, 1.07 ± 0.072
- TGGGTCAGTG — within error, 1 ± 0.021
- TGGGTCCGTG — within error, 0.963 ± 0.033
- TGGGTCGGGT — lower, 0.9817 ± 0.0088
- TGGGTCTTTT — the same, 1.01 ± 0.054
- TGGGTGACGG — within error, 0.958 ± 0.036
- TGGGTGAGAT — the same, 1.01 ± 0.032
- TGGGTGAGCT — the same, 1.01 ± 0.036
- TGGGTGAGGG — within error, 1 ± 0.0037
- TGGGTGATAT — within error, 0.989 ± 0.018
- TGGGTGCACG — within error, 0.996 ± 0.057
- TGGGTGCATG — within error, 0.9897 ± 0.0049
- TGGGTGCCGG — within error, 0.929 ± 0.11
- TGGGTGGCGA — within error, 1.02 ± 0.043
- TGGGTGGCGG — within error, 0.945 ± 0.052
- TGGGTGTCTG — lower, 0.9826 ± 0.0043
- TGGGTTACGA — within error, 1.04 ± 0.035
- TGGGTTAGAT — within error, 0.976 ± 0.025
- TGGGTTATAG — lower, 0.9786 ± 0.0038
- TGGGTTATGG — lower, 0.972 ± 0.016
- TGGGTTATTT — within error, 1 ± 0.038
- TGGGTTCGAG — the same, 1.005 ± 0.0097
- TGGGTTGGGT — within error, 0.993 ± 0.022
- TGGGTTGGTT — within error, 1 ± 0.036
- TGGGTTGTTG — within error, 0.985 ± 0.038
- TGGGTTTACG — within error, 1.03 ± 0.029
- TGGGTTTAGG — within error, 1.02 ± 0.025
- TGGGTTTGC — within error, 0.98 ± 0.054
- TGGGTTTGCT — within error, 1.001 ± 0.0063
- TGGGTTTGTA — within error, 0.984 ± 0.019
- TGGTAAAAAG — within error, 1.025 ± 0.0047
- TGGTAAAAGG — within error, 0.991 ± 0.038
- TGGTAAAGTA — within error, 0.991 ± 0.02
- TGGTACCTTG — within error, 1.19 ± 0.26
- TGGTACGGGT — within error, 1.03 ± 0.011
- TGGTAGAGAG — within error, 0.9883 ± 0.0075
- TGGTAGATT — the same, 1.01 ± 0.046
- TGGTAGCTGT — the same, 1.01 ± 0.062
- TGGTAGGATG — within error, 0.964 ± 0.05
- TGGTATCGGC — within error, 0.992 ± 0.01
- TGGTATTGCA — within error, 0.999 ± 0.028
- TGGTATTTTT — within error, 0.991 ± 0.029
- TGGTCAAAAA — within error, 0.9972 ± 0.0036
- TGGTCATTGC — higher, 1.064 ± 0.0086
- TGGTCCAGCG — within error, 0.998 ± 0.015
- TGGTCCTCCG — higher, 1.87 ± 0.31
- TGGTCGGCAA — higher, 1.045 ± 0.0081
- TGGTCTAGGT — the same, 1.01 ± 0.028
- TGGTCTGCCC — within error, 0.975 ± 0.053
- TGGTCTTCAT — within error, 1 ± 0.022
- TGGTGAAATG — within error, 1 ± 0.013
- TGGTGAAGGG — within error, 0.976 ± 0.016
- TGGTGACTTA — within error, 0.974 ± 0.039
- TGGTGAGGGT — within error, 0.999 ± 0.025
- TGGTGATGGC — within error, 0.991 ± 0.012
- TGGTGATGGT — within error, 1.03 ± 0.058
- TGGTGCACC — within error, 0.983 ± 0.042
- TGGTGCCCCA — within error, 1.03 ± 0.023
- TGGTGCGGGG — within error, 0.999 ± 0.026
- TGGTGGCCGC — within error, 0.982 ± 0.032
- TGGTGGGATG — within error, 0.977 ± 0.021
- TGGTGGGATT — within error, 0.995 ± 0.012
- TGGTGGGGGC — within error, 1 ± 0.052
- TGGTGGGTGT — within error, 0.987 ± 0.024
- TGGTGGGTTC — within error, 1.03 ± 0.067
- TGGTGGTGGT — the same, 1.01 ± 0.033
- TGGTGGTTTT — within error, 1.03 ± 0.025
- TGGTGTATGT — within error, 0.995 ± 0.022
- TGGTGTGGAG — higher, 1.062 ± 0.006
- TGGTGTTGGA — within error, 0.9906 ± 0.0068
- TGGTTACCGA — within error, 1 ± 0.014
